Experimental data taken from patent US20210107988A1 (Genmab, published 2021).
Numbering of substitutions follows the chain as printed. Names and notes keep the numbering of the source.

T1: dimeric, His-tagged, C-terminally biotinylated ECD of FcγRIIA allotype 131H (Homo sapiens (Human), UniProt P12318 34-215, C-terminally biotinylated)
T1 sequence: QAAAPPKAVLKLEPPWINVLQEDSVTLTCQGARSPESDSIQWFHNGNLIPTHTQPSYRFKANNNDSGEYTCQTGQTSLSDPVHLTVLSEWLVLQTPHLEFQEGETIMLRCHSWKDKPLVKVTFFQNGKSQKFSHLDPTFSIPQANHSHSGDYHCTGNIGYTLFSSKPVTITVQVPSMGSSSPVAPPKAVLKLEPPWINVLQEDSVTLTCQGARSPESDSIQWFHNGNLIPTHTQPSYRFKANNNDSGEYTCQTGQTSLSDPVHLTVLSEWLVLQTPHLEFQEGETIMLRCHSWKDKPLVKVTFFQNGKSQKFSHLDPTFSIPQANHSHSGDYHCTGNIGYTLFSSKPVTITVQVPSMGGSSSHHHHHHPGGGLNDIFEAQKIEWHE

T2: dimeric, His-tagged, C-terminally biotinylated ECD of FcγRIIB (Homo sapiens (Human), UniProt P31994 44-223, C-terminally biotinylated)
T2 construct: also called diFCGR2B-HisBAP
T2 sequence: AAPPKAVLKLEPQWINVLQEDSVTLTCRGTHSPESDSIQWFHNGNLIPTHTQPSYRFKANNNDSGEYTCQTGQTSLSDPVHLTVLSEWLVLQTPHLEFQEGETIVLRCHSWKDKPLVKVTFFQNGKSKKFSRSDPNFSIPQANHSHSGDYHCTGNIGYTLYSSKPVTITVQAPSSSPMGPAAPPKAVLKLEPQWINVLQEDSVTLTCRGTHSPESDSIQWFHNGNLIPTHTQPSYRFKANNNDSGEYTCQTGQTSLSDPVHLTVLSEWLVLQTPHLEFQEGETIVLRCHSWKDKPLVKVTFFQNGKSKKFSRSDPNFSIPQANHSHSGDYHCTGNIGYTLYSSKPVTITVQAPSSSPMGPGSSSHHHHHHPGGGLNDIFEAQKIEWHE

T3: dimeric, His-tagged, C-terminally biotinylated ECD of FcγRIIA allotype 131R (Homo sapiens (Human), UniProt P12318 36-215, C-terminally biotinylated)
T3 chain: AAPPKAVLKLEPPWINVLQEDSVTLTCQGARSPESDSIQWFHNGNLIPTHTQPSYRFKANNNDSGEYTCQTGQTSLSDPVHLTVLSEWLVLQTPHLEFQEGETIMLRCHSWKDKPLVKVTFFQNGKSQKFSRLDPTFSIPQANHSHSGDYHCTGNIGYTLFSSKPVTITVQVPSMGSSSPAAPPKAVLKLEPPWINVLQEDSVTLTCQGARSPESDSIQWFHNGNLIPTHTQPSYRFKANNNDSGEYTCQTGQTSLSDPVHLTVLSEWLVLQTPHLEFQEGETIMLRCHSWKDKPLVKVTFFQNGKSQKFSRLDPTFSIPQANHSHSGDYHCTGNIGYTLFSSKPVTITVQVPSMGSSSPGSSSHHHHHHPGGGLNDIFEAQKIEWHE

B1: IgG1-b12 (human IgG1 antibody b12, HIV gp120-specific) (antibody)
heavy: not shown
light: EIVLTQSPGTLSLSPGERATFSCRSSHSIRSRRVAWYQHKPGQAPRLVIHGVSNRASGISDRFSGSGSGTDFTLTITRVEPEDFALYYCQVYGASSYTFGQGTKLERKRTVAAPSVFIFPPSDEQLKSGTASVVCLLNNFYPREAKVQWKVDNALQSGNSQESVTEQDSKDSTYSLSSTLTLSKADYEKHKVYACEVTHQGLSSPVTKSFNRGEC
notes: also called IgG-b12
B2: IgG1-11B8-E430G-S440K with introduced mutation G237A (antibody, name in EU numbering)
heavy: EVQLVQSGGGLVHPGGSLRLSCTGSGFTFSYHAMHWVRQAPGKGLEWVSIIGTGGVTYYADSVKGRFTISRDNVKNSLYLQMNSLRAEDMAVYYCARDYYGAGSFYDGLYGMDVWGQGTTVTVSSASTKGPSVFPLAPSSKSTSGGTAALGCLVKDYFPEPVTVSWNSGALTSGVHTFPAVLQSSGLYSLSSVVTVPSSSLGTQTYICNVNHKPSNTKVDKRVEPKSCDKTHTCPPCPAPELLGAPSVFLFPPKPKDTLMISRTPEVTCVVVDVSHEDPEVKFNWYVDGVEVHNAKTKPREEQYNSTYRVVSVLTVLHQDWLNGKEYKCKVSNKALPAPIEKTISKAKGQPREPQVYTLPPSREEMTKNQVSLTCLVKGFYPSDIAVEWESNGQPENNYKTTPPVLDSDGSFFLYSKLTVDKSRWQQGNVFSCSVMHGALHNHYTQKKLSLSPGK
light: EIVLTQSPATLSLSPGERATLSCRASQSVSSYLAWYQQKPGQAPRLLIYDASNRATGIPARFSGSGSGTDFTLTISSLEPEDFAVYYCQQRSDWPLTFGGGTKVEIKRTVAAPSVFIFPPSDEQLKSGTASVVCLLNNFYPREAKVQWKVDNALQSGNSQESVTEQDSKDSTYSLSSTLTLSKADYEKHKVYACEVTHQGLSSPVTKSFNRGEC
notes: also called IgG1-11B8-E430G-S440K-G237A
B3: IgG1-CAMPATH-1H-E430G-K439E with introduced mutation G237A (antibody, name in EU numbering)
heavy: QVQLQESGPGLVRPSQTLSLTCTVSGFTFTDFYMNWVRQPPGRGLEWIGFIRDKAKGYTTEYNPSVKGRVTMLVDTSKNQFSLRLSSVTAADTAVYYCAREGHTAAPFDYWGQGSLVTVSSASTKGPSVFPLAPSSKSTSGGTAALGCLVKDYFPEPVTVSWNSGALTSGVHTFPAVLQSSGLYSLSSVVTVPSSSLGTQTYICNVNHKPSNTKVDKRVEPKSCDKTHTCPPCPAPELLGAPSVFLFPPKPKDTLMISRTPEVTCVVVDVSHEDPEVKFNWYVDGVEVHNAKTKPREEQYNSTYRVVSVLTVLHQDWLNGKEYKCKVSNKALPAPIEKTISKAKGQPREPQVYTLPPSREEMTKNQVSLTCLVKGFYPSDIAVEWESNGQPENNYKTTPPVLDSDGSFFLYSKLTVDKSRWQQGNVFSCSVMHGALHNHYTQESLSLSPGK
light: not shown
notes: also called IgG1-CAMPATH-1H-E430G-K439E-G237A
B4: IgG1-CAMPATH-1H-E430G-K439E-Y436K (antibody)
heavy: B3 heavy with A241G, Y440K
light: not shown
B5: IgG1-CAMPATH-1H-E430G-S440K-Y436K (antibody)
heavy: B3 heavy with A241G, Y440K, E443K, S444K
light: not shown
notes: also called IgG1-Campath-E430G Y436K/S440K
B6: IgG1-CAMPATH-1H-E430G-K439E-Y436N (antibody)
heavy: B3 heavy with A241G, Y440N
light: not shown
notes: also called IgG1-Campath-E430G Y436N/K439E
B7: IgG1-CAMPATH-1H-E430G-S440K-Q438N (antibody)
heavy: B3 heavy with A241G, Q442N, E443K, S444K
light: not shown
B8: IgG1-CAMPATH-1H-E430G-K439E-Q438N (antibody)
heavy: B3 heavy with A241G, Q442N
light: not shown
notes: also called IgG1-Campath-E430G Q438N/K439E
B9: IgG1-CAMPATH-1H-E430G-S440K-Q438R (antibody)
heavy: B3 heavy with A241G, Q442R, E443K, S444K
light: not shown
notes: also called IgG1-Campath-E430G Q438R/S440K
B10: IgG1-CAMPATH-1H-E430G-S440K-Y436N (antibody)
heavy: B3 heavy with A241G, Y440N, E443K, S444K
light: not shown
B11: IgG1-CAMPATH-1H-E430G-K439E-Q438R (antibody)
heavy: B3 heavy with A241G, Q442R
light: not shown
B12: IgG1-Campath-E430G H310R/S440K (antibody)
heavy: B3 heavy with A241G, H314R, E443K, S444K
light: not shown
notes: also called IgG1-CAMPATH-1H-E430G-S440K with H310R; constant region IgG1m(f)-H310R-E430G-S440K
B13: IgG1-Campath-E430G I253K/S440K (antibody)
heavy: B3 heavy with A241G, I257K, E443K, S444K
light: not shown
notes: also called IgG1-CAMPATH-1H-E430G-S440K with I253K; constant region IgG1m(f)-I253K-E430G-S440K
B14: IgG1-Campath-E430G I253G/K439E (antibody)
heavy: B3 heavy with A241G, I257G
light: not shown
notes: also called IgG1-CAMPATH-1H-E430G-K439E with I253G; constant region IgG1m(f)-I253G-E430G-K439E
B15: IgG1-Campath-E430G H310D/K439E (antibody)
heavy: B3 heavy with A241G, H314D
light: not shown
notes: also called IgG1-CAMPATH-1H-E430G-K439E with H310D; constant region IgG1m(f)-H310D-E430G-K439E
B16: IgG1-Campath-E430G I253R/S440K (antibody)
heavy: B3 heavy with A241G, I257R, E443K, S444K
light: not shown
notes: also called IgG1-CAMPATH-1H-E430G-S440K with I253R; constant region IgG1m(f)-I253R-E430G-S440K

Biological target: T4, FcRnECDHis-B2M-BIO (biotinylated extracellular domain of human FcRn with a C-terminal His tag as dimer with … (human, UniProt P55899 24-297)); P61769 21-119, biotinylated (site not stated))
T4 construct: Coated on Streptawell plates at 5 µg/mL; also called FcRnhsECDHis
T4 sequence (P55899 other isoform, or with tags, fused parts or gaps limits assumed, chain 1 of 2): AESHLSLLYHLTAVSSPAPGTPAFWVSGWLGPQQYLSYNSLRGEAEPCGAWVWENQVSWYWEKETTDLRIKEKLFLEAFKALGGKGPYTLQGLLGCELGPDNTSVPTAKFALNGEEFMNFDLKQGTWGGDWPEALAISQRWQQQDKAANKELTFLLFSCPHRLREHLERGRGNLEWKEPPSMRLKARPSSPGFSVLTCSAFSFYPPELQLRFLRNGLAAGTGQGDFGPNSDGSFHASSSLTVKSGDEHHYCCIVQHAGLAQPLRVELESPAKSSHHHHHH
T4 sequence (P61769 21-119 limits assumed, chain 2 of 2): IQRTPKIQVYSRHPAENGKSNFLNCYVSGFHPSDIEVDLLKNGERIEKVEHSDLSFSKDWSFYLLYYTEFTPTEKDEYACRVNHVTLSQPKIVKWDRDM
Experiment: FcRn ELISA, pH 6.0

Binder	binding result
B1	binds

Biological target: T5, dimeric, His-tagged, C-terminally biotinylated ECD of FcγRIIIA allotype 158V (C-terminally biotinylated)
T5 construct: also called diFCGR3A-158V-HisBAP; IIIA-158V
Experiment: FcγR ELISA

Binder	binding result
B2	no binding (tested: 20 µg/mL)
B3	no binding (tested: 20 µg/mL)

Biological target: dimeric, His-tagged, C-terminally biotinylated ECD of FcγRIIIA allotype 158F (C-terminally biotinylated)
Experiment: FcγR ELISA

Binder	binding result
B2	no binding (tested: 20 µg/mL)

Biological target: T1, dimeric, His-tagged, C-terminally …
Experiment: FcγR ELISA

Binder	binding result
B2	no binding (tested: 20 µg/mL)
B3	no binding (tested: 20 µg/mL)

Biological target: T2, dimeric, His-tagged, C-terminally …
Experiment: FcγR ELISA, 20 µg/mL antibody

Binder	binding result
B4	binds
B5	binds
B6	binds
B7	binds
B8	binds
B9	binds
B10	binds
B11	binds

Biological target: T3, dimeric, His-tagged, C-terminally …
Experiment: FcγR ELISA, 20 µg/mL antibody

Binder	binding result
B4	binds
B5	binds
B6	binds
B7	binds
B8	binds
B9	binds
B10	binds
B11	binds

Biological target: T1, dimeric, His-tagged, C-terminally …
Experiment: FcγR ELISA, 20 µg/mL antibody

Binder	binding result
B4	binds
B5	binds
B6	binds
B7	binds
B8	binds
B9	binds
B10	binds
B11	binds

Biological target: T4, FcRnECDHis-B2M-BIO (biotinylated …)
Experiment: FcRn ELISA, pH 7.4

Binder	binding result
B12	no binding (tested: 40 µg/mL)
B13	no binding (tested: 40 µg/mL)
B14	no binding (tested: 40 µg/mL)
B15	no binding (tested: 40 µg/mL)
B16	no binding (tested: 40 µg/mL)
